Laboratory results: publication PMC10336132 (2023)

Key:
[1] = target: SdpA, SdpB, AmiC, the SPOR domain of CrbA and the periplasmic region of FtsN; assay: BLI; biotinylated target immobilised on streptavidin (SAX) sensors, DipM as analyte at several concentrations; equilibrium shifts fitted to a one-site model; 50 mM HEPES/NaOH pH 7.2, 50 mM NaCl, 5 mM MgCl2, 0.1 mM EDTA, 10% glycerol, 10 µM BSA, 0.01% Triton X-100
SdpB(26-536) = target: T1, SdpB(26-536) (Caulobacter crescentus NA1000, UniProt A0A0H3C791 26-536, biotinylated using NHS-PEG4-Biotin (for BLI)); assay: BLI
T1 chain: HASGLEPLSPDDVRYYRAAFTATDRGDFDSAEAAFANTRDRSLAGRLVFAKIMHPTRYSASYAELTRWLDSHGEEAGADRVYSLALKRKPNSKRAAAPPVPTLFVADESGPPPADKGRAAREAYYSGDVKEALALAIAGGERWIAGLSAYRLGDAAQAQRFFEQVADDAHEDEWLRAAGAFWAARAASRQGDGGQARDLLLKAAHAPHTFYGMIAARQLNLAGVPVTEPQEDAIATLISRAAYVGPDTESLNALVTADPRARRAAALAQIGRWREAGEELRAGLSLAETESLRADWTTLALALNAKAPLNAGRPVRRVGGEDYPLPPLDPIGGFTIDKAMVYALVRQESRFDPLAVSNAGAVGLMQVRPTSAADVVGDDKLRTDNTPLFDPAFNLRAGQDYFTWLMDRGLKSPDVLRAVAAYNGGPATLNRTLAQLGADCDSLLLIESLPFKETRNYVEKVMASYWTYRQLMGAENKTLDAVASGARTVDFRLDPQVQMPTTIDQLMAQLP

FtsN(51-266) = target: T2, FtsN(51-266) (Caulobacter crescentus NA1000, UniProt B8GX61 51-266, biotinylated using NHS-PEG4-Biotin (for BLI)); assay: BLI
T2 chain: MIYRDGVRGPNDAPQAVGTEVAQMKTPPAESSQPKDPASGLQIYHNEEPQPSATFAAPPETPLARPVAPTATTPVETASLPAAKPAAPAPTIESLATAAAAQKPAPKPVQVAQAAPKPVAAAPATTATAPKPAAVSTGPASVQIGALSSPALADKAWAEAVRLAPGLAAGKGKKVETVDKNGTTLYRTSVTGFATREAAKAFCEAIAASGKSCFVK

CrbA(371-451) = target: T3, CrbA(371-451) (Caulobacter crescentus NA1000, UniProt A0A0H3C8K5 371-451, biotinylated using NHS-PEG4-Biotin (for BLI)); assay: BLI
T3 chain: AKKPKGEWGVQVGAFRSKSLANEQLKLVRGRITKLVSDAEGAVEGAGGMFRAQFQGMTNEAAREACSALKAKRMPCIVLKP

AmiC(35-395) = target: T4, AmiC(35-395) (Caulobacter crescentus NA1000, UniProt A0A0H3C9I3 35-395, biotinylated using NHS-PEG4-Biotin (for BLI)); assay: BLI
T4 chain: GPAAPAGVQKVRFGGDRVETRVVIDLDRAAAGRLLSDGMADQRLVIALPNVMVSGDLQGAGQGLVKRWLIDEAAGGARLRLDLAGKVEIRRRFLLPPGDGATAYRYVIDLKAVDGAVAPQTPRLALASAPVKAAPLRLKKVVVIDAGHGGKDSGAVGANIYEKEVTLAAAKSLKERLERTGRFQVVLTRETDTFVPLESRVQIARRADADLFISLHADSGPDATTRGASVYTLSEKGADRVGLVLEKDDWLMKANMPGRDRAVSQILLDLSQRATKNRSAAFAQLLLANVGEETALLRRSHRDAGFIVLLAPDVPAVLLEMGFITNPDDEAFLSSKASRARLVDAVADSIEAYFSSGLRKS

His6-SdpA(21-699) = target: T5, His6-SdpA(21-699) (Caulobacter crescentus NA1000, UniProt A0A0H3C7P1 21-699, biotinylated using NHS-PEG4-Biotin (for BLI)); assay: BLI
T5 chain: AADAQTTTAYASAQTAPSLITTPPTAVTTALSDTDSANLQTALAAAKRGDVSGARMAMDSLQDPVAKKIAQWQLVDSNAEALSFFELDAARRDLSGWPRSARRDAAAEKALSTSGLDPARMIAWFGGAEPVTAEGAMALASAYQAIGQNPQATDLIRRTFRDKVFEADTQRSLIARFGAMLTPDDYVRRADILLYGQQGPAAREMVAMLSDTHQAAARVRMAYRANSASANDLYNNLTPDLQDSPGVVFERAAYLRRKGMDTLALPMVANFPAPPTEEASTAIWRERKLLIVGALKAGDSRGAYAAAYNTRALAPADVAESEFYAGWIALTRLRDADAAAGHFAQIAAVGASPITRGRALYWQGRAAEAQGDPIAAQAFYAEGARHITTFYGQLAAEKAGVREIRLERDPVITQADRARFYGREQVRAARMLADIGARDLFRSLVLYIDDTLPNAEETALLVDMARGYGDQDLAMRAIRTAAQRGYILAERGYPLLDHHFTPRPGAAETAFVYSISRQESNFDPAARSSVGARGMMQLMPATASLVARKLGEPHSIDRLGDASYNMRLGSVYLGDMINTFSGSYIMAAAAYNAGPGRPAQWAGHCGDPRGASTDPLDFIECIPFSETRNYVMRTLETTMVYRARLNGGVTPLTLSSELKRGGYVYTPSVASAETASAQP

Kd [1]: 3 to 46 µM
Kd (SdpB(26-536)): 3.5 µM
Kd (FtsN(51-266)): 20 µM
Kd (CrbA(371-451)): 46.3 µM
Kd (AmiC(35-395)): 18.3 µM
Kd (His6-SdpA(21-699)): 12.1 µM
B1: MAS-DipM(26-609)-His6 (natural protein)
chain: MASGQSGQRFTPNFPITQPAAPPPGETIQAQPGEAESLPRPTPIPVQSAPPIAQAELPPPAPVSTPAPAPQPVLRATPPRTVVTTTVTGPVVEVAGKPQVRVVESGDALDAIARGMGSTRAELVKLNDLEPPYRLKLGQKIKGPATTAKAYVVQTGDTMFAIAKRFNVTAAALAEENDLKSGAAIKKGQKLLLPDGYKDKGPIKTTQVIPGTPATMVAEAEPAPATTRPATPAATPSRPVRQPVSEETSEPATTSTTTLSVTGSVVTVAGPRQVHTVKSGDTLTAIARKFDMSVSELAEANKLDTEKPLKLGAKIKGPATTQKAYSVQTGDTLGEIAKRFNVSVKALAAENNLRATASLKKGQKIALPDGFRDKGPIRTTTTTRPATPPANTYARVDSSAAAASTPSSPVPYTPSGAAPRPSAPVAAQPITPPPSSGRTIIETAAAPTEAEIIASGKGKFAWPLRGDIISSFGVKGTGQRNDGLNIRAPQGTPVLSSADGEIAYAGNQVPTFGNLVLVKHADGWVTAYAHLSSTNVKMRQQVKQGEQLGTVGATGGVNEPQLHFEMRYAPTVKDKAKPVDPALVLPR
